From patent US20230203156A1 (WILLIAM ROBERT ARATHOON LIVING TRUST DATED AUGUST 29 2016, published 2023)
“And” between values parts separate entries of the source, which are not always exact repeats. Equal values may be shown once. Read-outs that look alike come from different tables or passages of the source. One block for each binder: values may come before it.

Experiments:
[1] = molecular target: T1, human MDR1 (multidrug resistance protein 1) (human, UniProt P08183 1-1280); assay: binding to C6 cells overexpressing human ABCB1 (FIGS. 17A-17B)
T1 construct: also called ABCB1; P-glycoprotein 1

human CD47 [2] = molecular target: T2, human CD47 (human, UniProt Q08722 19-323); assay: binding to C6 cells overexpressing human CD47 (FIGS. 17A-17B)
T2 construct: whole, on cells; Overexpressed on rat C6 cells, or endogenous on human tumour cell lines; also called KT14; hKT14

[3] = molecular target: T1, human MDR1 (multidrug resistance …); assay: cell-based or functional assay
[4] = molecular target: T3, cynomolgus MDR1 (Macaca fascicularis) (Macaca fascicularis (cynomolgus), UniProt P08183 1-1280 (human entry)); assay: flow cytometry on cells expressing cynomolgus MDR1
T3 construct: also called cB1; cynomolgus ABCB1

[5] = molecular target: T1, human MDR1 (multidrug resistance …); assay: flow cytometry
[6] = molecular target: T3, cynomolgus MDR1 (Macaca fascicularis); assay: flow cytometry, 293T cells transfected with cynomolgus MDR1
[7] = molecular target: T1, human MDR1 (multidrug resistance …); assay: flow cytometry, 293T cells overexpressing human MDR1
[8] = molecular target: T1, human MDR1 (multidrug resistance …); assay: flow cytometry, 293T cells stably expressing human ABCB1 (293T_ABCB1_OX)
[9] = molecular target: T1, human MDR1 (multidrug resistance …); assay: cell-based or functional assay; remark: listed apart in the source
[10] = molecular target: T3, cynomolgus MDR1 (Macaca fascicularis); assay: flow cytometry
human CD47 [11] = molecular target: T2, human CD47; assay: binding to C6 cells expressing human CD47, figure legend

binding result [1]: binds | binding result (human CD47 [2]): binds
B1: 15D3DD KT14KK MRK16v5 LC (bispecific antibody, human IgG1)
heavy 1: not shown
heavy 2: not shown
VL: DIVMTQTPLSSPVTLGQPASISCRSSQSIVYSNGNTYLEWYQQKPGQPPRLLIYKISNRFSGVPDRFSGSGAGTDFTLKISRVEAEDVGVYYCFQASHFPRTFGGGTKLEIK

IC50 of vincristine on N6/ADR cells with antibody [3]: 3.8 pM | binding result [4]: binds
B2: B1.261 (antibody, human IgG1, V domains shown)
VH: QVQLKESGPGLVAPSQSLSITCTVSGFSLTSYGVHWVRQPPGKGLEWLVVIWSDGSTTYNSALKSRLSISKDNSKSQVFLKMNSLQIDDTAMYYCARHGRWLLQRGGAMDYWGQGTSVTVSS
VL: DVVMTQAPKFMSTSVGDRVSVTCRASQNVGSYIAWYQQKLGQSPKALIYSASYRCSGVPDRFTGSGAGTDFTLTIRNVQSEDLAEYFCQQYNSYPLTFGGGTKLEIK
notes: expressed with human IgG1 heavy and human kappa light constant regions; also called KNJY B1-261; KB1.261

binding result [5]: binds | binding result [6]: binds
B3: B1.129.huH1-huL1(KV3) (antibody, human IgG1, V domains shown)
VH: EVQLVQSGAEVKKPGASVKVSCKASGYTFSTYVIHWVRQAPGQGLEWIGYIYPYNDYTKYNEKFKDRATLTSDKSTSTAYMELRSLRSDDTAVYYCSRAYYGNLVGYGVDYWGQGTTVTVSS
VL: EIVLTQSPATLSLSPGERATLSCRASSSVSFIYWYQQKPGQSPRPWIFATSNLASGVPARFSGSGSGTDYTLTISSLEPEDFAVYYCHQWGSNLPTFGGGTKLEIK
notes: Humanized B1.129; Human IgG1/kappa constant regions; also called B1.129.hz1

binding result [6]: no binding | binding result [7]: no binding
B4: B1.129.huH1-huL1(KV1) (antibody, human IgG1, V domains shown)
VH: EVQLVQSGAEVKKPGASVKVSCKASGYTFSTYVIHWVRQAPGQGLEWIGYIYPYNDYTKYNEKFKDRATLTSDKSTSTAYMELRSLRSDDTAVYYCSRAYYGNLVGYGVDYWGQGTTVTVSS
VL: DIQLTQSPSSLSASVGDRVTITCRASSSVSFIYWYQQKPGKSPKPWIFATSNLASGVPSRFSGSGSGTDYTLTISSLQPEDFATYYCHQWGSNLPTFGGGTKLEIK
notes: Humanized B1.129; Human IgG1/kappa constant regions; also called B1.129.hz2

IC50 of vincristine on N6/ADR cells with antibody [3]: 3340 pM and 2870 pM | binding result [6]: binds
B5: B1.28 (antibody, human IgG1, V domains shown)
VH: EVKLVESGGGLVKPGGSLKLSCAASGFTFGLYTMSWVRQTPERRLEWVATISSGGSNTYYPDSVKGRFTISRDNAKNNLFLQMNSLRSEDTALYYCARYYRYDAWFAYWGQGTLVTVSS
VL: DVLLTQTPLSLPVSLGDQASISCRSSQNIVHSTGNTYLDWYLQKPGQSPKLLIYKVSNRFSGVPDRFSGSGSGTDFTLKISRVEAEDLGVYFCFQGSHIPRTFGGGTKLEIK
notes: expressed with human IgG1 heavy and human kappa light constant regions; also called KNJY B1-28; KB1.28

binding result [1]: binds | binding result (human CD47 [2]): binds
B6: 15D3DD KT14KK B1.89v1 LC (bispecific antibody, human IgG1)
heavy 1: not shown
heavy 2: not shown
VL: DVLMTQTPLSLPVSLGDQASISCRSSQTIVHSNGNTYLEWYLQKPGQSPKLLIYKVSKRFSGVPDRFSGSGSGTDFTLKISRVEAEDLGVYYCFQASHFPRTFGGGTKLEIK
notes: also called 15D3DD/KT14KK/89v1

binding result [1]: binds
B7: 15D3DD KT14KK B1.28.huL2 LC (bispecific antibody, human IgG1)
heavy 1: not shown
heavy 2: not shown
VL: DVVLTQSPLSLPVTPGEPASISCRSSQNIVHSTGNTYLDWYLQKPGQSPQLLIYKVSNRFSGVPDRFSGSGSGTDFTLKISRVEAEDVGVYYCFQGSHIPRTFGQGTKLEIK

EC50 [8]: 118000 pM | IC50 of vincristine on N6/ADR cells with antibody [9]: 6.4 pM
B8: BisAb-1 (15D3 HC-Hz1 DD hIgG1 / KT14 IgG1 KK / B1-28 VL humaniz) (bispecific antibody)
VH: EVQLVESGGVVVQPGGSLRLSCAASGFTFSRYTMSWVRQAPGKGLEWVATISSGGGQTYYPDSVKGRFTVSRDNSKNSLYLQMNSLRTEDTALYYCARYGAGDAWFAYWGQGTLVTVSS
heavy: not shown
VL: DVVLTQSPLSLPVTLGQPASISCRSSQNIVHSTGNTYLDWYQQRPGQSPRLLIYKVSNRFSGVPDRFSGSGSGTDFTLKISRVEAEDVGVYFCFQGSHIPRTFGQGTKLEIK
notes: The 15D3 Hz1 VH is fused to human IgG1 Fc with K392D and K409D (EU)

IC50 of vincristine on N6/ADR cells with antibody [9]: 734 pM
B9: MRK16 (antibody, V domains shown)
VH: EVILVESGGGLVKPGGSLKLSCAASGFTFSSYTMSWVRQTPEKRLEWVATISSGGGNTYYPDSVKGRFTISRDNAKNNLYLQMSSLRSEDTALYYCARYYRYEAWFASWGQGTLVTVSA
VL: DVLMTQTPVSLSVSLGDQASISCRSSQSIVHSTGNTYLEWYLQKPGQSPKLLIYKISNRFSGVPDRFSGSGSGTDFTLKISRVEAEDLGVYYCFQASHFPRTFGGGTKLEIK

EC50 [8]: 14600 pM | IC50 of vincristine on N6/ADR cells with antibody [9]: 466 pM
B10: 15D3 (antibody, V domains shown)
VH: EVKVVESGGVLVRPGGSLKLSCAASGFTFSRYTMSWVRQTPEKRLEWVATISSGGGNTYYPDSVKGRFTVSRDNAMSSLYLQMSSLRSEDTALYYCARYGAGDAWFAYWGQGTLVTVSS
VL: DVLMTQTPLSLPVSLGDQASISCRSSQSIVHSTGNTYLEWYLQKPGQSPKLLIYKVSNRFSGVPDRFSGSGSGTDFTLKISRLEAEDLGVYYCFQGSHFPRTFGGGTRLEIK
notes: Known anti-MDR1 antibody; also called KPA01; 15D3 hybridoma

binding result [10]: binds | IC50 of vincristine on N6/ADR cells with antibody [3]: 13.2 pM
B11: B1.129 (antibody, human IgG1, V domains shown)
VH: EVQLQQSGPELVKPGASVKMSCKASGYTFSTYVIHWVKQKPGQGLEWIGYIYPYNDYTKYNEKFKDKATLTSDKSSSTAYMEIRSLTSEDSAVYYCSRAYYGNLVGYGVDYWGQGTSVTVSS
VL: QIVLTQSPAILPASPGEKVTMTCRASSSVSFIYWYQQRPGSSPKPWIFATSNLASGVPARFSGSGSGTSYSLTISRVEAEDAATYYCHQWGSNLPTFGGGTKLEIK
notes: expressed with human IgG1 heavy and human kappa light constant regions; also called KNJY B1-129; KB1.129

binding result (human CD47 [11]): binds
B12: KT14.B6H12hu scFv-B1.261.hu1 (bispecific antibody, human IgG1, kappa)
scFv: not shown
heavy: EVQLQESGPGLVKPSETLSLTCTVSGFSLTSYGVHWVRQPPGKGLEWLVVIWSDGSTTYNSALKSRLTISKDNSKNQVSLKLSSVTAADTAVYYCARHGRWLLQRGGAMDYWGQGTMVTVSSASTKGPSVFPLAPSSKSTSGGTAALGCLVKDYFPEPVTVSWNSGALTSGVHTFPAVLQSSGLYSLSSVVTVPSSSLGTQTYICNVNHKPSNTKVDKRVEPKSCDKTHTCPPCPAPELLGGPSVFLFPPKPKDTLMISRTPEVTCVVVDVSHEDPEVKFNWYVDGVEVHNAKTKPREEQYNSTYRVVSVLTVLHQDWLNGKEYKCKVSNKALPAPIEKTISKAKGQPREPQVCTLPPSREEMTKNQVSLSCAVKGFYPSDIAVEWESNGQPENNYKTTPPVLDSDGSFFLVSKLTVDKSRWQQGNVFSCSVMHEALHNHYTQKSLSLSPGK
light: DVQMTQSPSSLSASVGDRVTITCRASQNVGSYIAWYQQKPGKSPKALIYSASYRSSGVPSRFSGSGAGTDFTLTISSLQPEDFATYFCQQYNSYPLTFGGGTKLEIKRTVAAPSVFIFPPSDEQLKSGTASVVCLLNNFYPREAKVQWKVDNALQSGNSQESVTEQDSKDSTYSLSSTLTLSKADYEKHKVYACEVTHQGLSSPVTKSFNRGEC
